T1: filaments of keratins 7 and 18 (human, UniProt P08729 1-469; P05783 1-430)
T1 construct: keratin 7, recombinant human; keratin 18, recombinant human; In vitro assembled keratin filaments; also called keratin filaments
T1 sequence (looked up) 1: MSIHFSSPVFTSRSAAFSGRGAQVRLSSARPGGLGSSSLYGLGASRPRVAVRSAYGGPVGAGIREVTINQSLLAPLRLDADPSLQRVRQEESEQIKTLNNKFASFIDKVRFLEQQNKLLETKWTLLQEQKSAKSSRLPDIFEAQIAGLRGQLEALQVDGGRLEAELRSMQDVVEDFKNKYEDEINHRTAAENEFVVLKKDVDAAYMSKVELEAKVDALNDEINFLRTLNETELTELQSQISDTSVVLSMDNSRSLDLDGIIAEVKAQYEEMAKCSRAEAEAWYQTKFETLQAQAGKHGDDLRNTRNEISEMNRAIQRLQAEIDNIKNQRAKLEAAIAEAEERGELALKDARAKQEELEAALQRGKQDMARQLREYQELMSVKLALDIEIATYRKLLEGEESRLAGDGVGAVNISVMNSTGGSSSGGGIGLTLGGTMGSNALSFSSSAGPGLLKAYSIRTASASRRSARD
T1 sequence (looked up) 2: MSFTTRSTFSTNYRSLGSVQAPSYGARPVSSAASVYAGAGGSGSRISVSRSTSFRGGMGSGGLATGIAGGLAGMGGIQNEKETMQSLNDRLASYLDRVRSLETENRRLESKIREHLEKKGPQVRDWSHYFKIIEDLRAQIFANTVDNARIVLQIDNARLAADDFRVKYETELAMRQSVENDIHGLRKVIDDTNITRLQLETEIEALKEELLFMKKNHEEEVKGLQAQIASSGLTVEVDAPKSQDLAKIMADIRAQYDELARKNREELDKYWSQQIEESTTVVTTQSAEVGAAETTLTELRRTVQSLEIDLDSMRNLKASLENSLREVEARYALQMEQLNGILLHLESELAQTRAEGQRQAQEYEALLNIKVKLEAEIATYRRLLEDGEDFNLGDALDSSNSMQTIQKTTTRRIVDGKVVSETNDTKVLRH


How the values were obtained:
[1] = biological target: desmin (assembled into filaments, or immobilised on a sensor chip) (not stated (chicken gizzard desmin or recombinant human desmin prepared)) (UniProt P17661); assay: co-sedimentation; high-speed; filaments assembled at 0.2 mg ml^-1 with WT CRYAB at 1 : 1 molar ratio; 20 mM HEPES, 100 mM NaCl, 1 mM MgCl2, 1 mM DTT, pH 6.3; 23, 39 or 44°C
[2] = biological target: the molecule itself; assay: SEC; Superformance column packed with Fractogel EMD BioSEC, calibrated with protein standards; 20 mM Tris-HCl pH 7.4, 100 mM NaCl, room temperature; self-association into oligomers
[3] = biological target: T1, filaments of keratins 7 and 18; assay: co-sedimentation; filaments assembled with the sHSP (desmin : sHSP 1 : 1 molar ratio) at three temperatures (22, 37, 44°C named in the text); pellet and supernatant by SDS-PAGE, Coomassie Blue; conditions: both partners purified
[4] = biological target: T2, glial fibrillary acidic protein (GFAP) (human, UniProt P14136 1-432); assay: SPR; Biacore 3000; desmin, GFAP and vimentin immobilised on a CM5 chip; CRYAB injected at 20 g ml^-1 (so in the source) for 7 min at 37°C, then washed 7 min; 10 mM HEPES pH 7.4, 0.15 M NaCl, 3.4 mM EDTA, 0.005% P20; double referencing; conditions: both partners purified
T2 construct: glial fibrillary acidic protein, recombinant human; Assembled into filaments for co-sedimentation and viscometry; immobilised on the chip for SPR; also called WT GFAP; GFAP filaments
T2 sequence (P14136 whole entry): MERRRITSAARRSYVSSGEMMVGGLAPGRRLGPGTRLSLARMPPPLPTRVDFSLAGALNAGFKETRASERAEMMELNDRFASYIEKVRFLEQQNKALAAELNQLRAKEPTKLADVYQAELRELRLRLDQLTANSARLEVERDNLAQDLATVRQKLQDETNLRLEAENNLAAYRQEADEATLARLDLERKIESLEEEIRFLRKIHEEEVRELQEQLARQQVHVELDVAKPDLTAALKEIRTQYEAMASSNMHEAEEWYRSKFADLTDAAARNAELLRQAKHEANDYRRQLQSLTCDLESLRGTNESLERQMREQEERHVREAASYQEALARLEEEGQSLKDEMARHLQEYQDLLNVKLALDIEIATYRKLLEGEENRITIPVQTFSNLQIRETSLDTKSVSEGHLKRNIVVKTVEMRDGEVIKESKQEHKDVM

| percent of the total CRYAB co-sedimented (pH 6.3, 39°C to 44°C) [1] [per cent] | binding result [3] | binding result [4] | Molecule | binding result [2] |
| --- | --- | --- | --- | --- |
| > 35 |  |  | wild-type αB-crystallin (CRYAB, HSPB5) (from UniProt P02511 1-175) (natural protein) |  |
|  | binds |  | wild-type αB-crystallin (CRYAB, HSPB5) (natural protein, human, UniProt P02511 1-175, looked up, αB-crystallin (CRYAB, HSPB5), human; Polydisperse oligomer (apparent size about 520 kDa by SEC); also called WT CRYAB; WT αB-crystallin) MDIAIHHPWIRRPFFPFHSPSRLFDQFFGEHLLESDLFPTSTSLSPFYLRPPSFLRAPSWFDTGLSEMRLEKDRFSVNLDVKHFSPEELKVKVLGDVIEVHGKHEERQDEHGFISREFHRKYRIPADVDPLTITSSLSSDGVLTVNGPRKQVSGPERTIPITREEKPAVTAAPKK | binds |
|  | binds | binds | R120G αB-crystallin (R120G CRYAB) (natural protein, human, UniProt P02511 1-175, looked up, αB-crystallin (CRYAB, HSPB5), human, with the disease-causing mutation R120G; Mutation found in a human family with desmin-related myopathy and cataract; Oligomer of apparent size 684 kDa by SEC; also called CRYAB R120G) MDIAIHHPWIRRPFFPFHSPSRLFDQFFGEHLLESDLFPTSTSLSPFYLRPPSFLRAPSWFDTGLSEMRLEKDRFSVNLDVKHFSPEELKVKVLGDVIEVHGKHEERQDEHGFISREFHGKYRIPADVDPLTITSSLSSDGVLTVNGPRKQVSGPERTIPITREEKPAVTAAPKK | binds |

— paper PMC3638400 (Philosophical Transactions of the Royal Society B: …, 2013)
